Patent US20240301041A1

Assays:
[1] = biological target: IgG binding protein (Protein A homolog SpsQ/SpsP) on S. pseudintermedius AHDRCC 98200 (Staphylococcus pseudintermedius); test: ELISA, coated S. pseudintermedius 98200, antibody 1.47E-13 M
[2] = biological target: Protein A on the surface of S. aureus Newman wild-type (Staphylococcus aureus (strain Newman)) (UniProt P38507); test: ELISA, coated S. aureus Newman, antibody 3.09E-07 M
[3] = biological target: IgG binding protein (Protein A homolog SpsQ/SpsP) on MRSP S. pseudintermedius 88493 (Staphylococcus pseudintermedius); test: ELISA, coated S. pseudintermedius 88493, antibody 4.82E-09 M
[4] = biological target: IgG binding protein (Protein A homolog SpsQ/SpsP) on S. intermedius 27369 (Staphylococcus intermedius); test: ELISA, coated S. intermedius 27369, antibody 1.47E-13 M
[5] = biological target: IgG binding protein (Protein A homolog SpsQ/SpsP) on MRSP S. pseudintermedius 88493 (Staphylococcus pseudintermedius); test: ELISA, coated S. pseudintermedius 88493, antibody 9.42E-12 M
[6] = biological target: IgG binding protein (Protein A homolog SpsQ/SpsP) on S. pseudintermedius AHDRCC 98200 (Staphylococcus pseudintermedius); test: ELISA, coated S. pseudintermedius 98200, antibody 3.86E-08 M
[7] = biological target: IgG binding protein (Protein A homolog SpsQ/SpsP) on S. pseudintermedius AHDRCC 98200 (Staphylococcus pseudintermedius); test: ELISA, coated S. pseudintermedius 98200, antibody 3.09E-07 M
[8] = biological target: Protein A on the surface of S. aureus Newman wild-type (Staphylococcus aureus (strain Newman)) (UniProt P38507); test: ELISA, coated S. aureus Newman, antibody 4.82E-09 M
[9] = biological target: IgG binding protein (Protein A homolog SpsQ/SpsP) on S. intermedius 27369 (Staphylococcus intermedius); test: ELISA, coated S. intermedius 27369, antibody 4.82E-09 M
[10] = biological target: IgG binding protein (Protein A homolog SpsQ/SpsP) on S. intermedius 27369 (Staphylococcus intermedius); test: ELISA, coated S. intermedius 27369, antibody 3.86E-08 M
[11] = biological target: IgG binding protein (Protein A homolog SpsQ/SpsP) on MRSP S. pseudintermedius 88493 (Staphylococcus pseudintermedius); test: ELISA, coated S. pseudintermedius 88493, antibody 7.54E-11 M
[12] = biological target: Protein A on the surface of S. aureus Newman wild-type (Staphylococcus aureus (strain Newman)) (UniProt P38507); test: ELISA, coated S. aureus Newman, antibody 7.54E-11 M
[13] = biological target: IgG binding protein (Protein A homolog SpsQ/SpsP) on S. intermedius 27369 (Staphylococcus intermedius); test: ELISA, coated S. intermedius 27369, antibody 6.03E-10 M
[14] = biological target: IgG binding protein (Protein A homolog SpsQ/SpsP) on S. intermedius 27369 (Staphylococcus intermedius); test: ELISA, coated S. intermedius 27369, antibody 9.42E-12 M
[15] = biological target: IgG binding protein (Protein A homolog SpsQ/SpsP) on S. pseudintermedius AHDRCC 98200 (Staphylococcus pseudintermedius); test: ELISA, coated S. pseudintermedius 98200, antibody 1.18E-12 M
[16] = biological target: IgG binding protein (Protein A homolog SpsQ/SpsP) on S. pseudintermedius AHDRCC 98200 (Staphylococcus pseudintermedius); test: ELISA, coated S. pseudintermedius 98200, antibody 6.03E-10 M
[17] = biological target: IgG binding protein (Protein A homolog SpsQ/SpsP) on MRSP S. pseudintermedius 88493 (Staphylococcus pseudintermedius); test: ELISA, coated S. pseudintermedius 88493, antibody 3.09E-07 M
[18] = biological target: Protein A on the surface of S. aureus Newman wild-type (Staphylococcus aureus (strain Newman)) (UniProt P38507); test: ELISA, coated S. aureus Newman, antibody 1.18E-12 M
[19] = biological target: Protein A on the surface of S. aureus Newman wild-type (Staphylococcus aureus (strain Newman)) (UniProt P38507); test: ELISA, coated S. aureus Newman, antibody 1.47E-13 M
[20] = biological target: IgG binding protein (Protein A homolog SpsQ/SpsP) on S. intermedius 27369 (Staphylococcus intermedius); test: ELISA, coated S. intermedius 27369, antibody 3.09E-07 M
[21] = biological target: IgG binding protein (Protein A homolog SpsQ/SpsP) on S. pseudintermedius AHDRCC 98200 (Staphylococcus pseudintermedius); test: ELISA, coated S. pseudintermedius 98200, antibody 7.54E-11 M
[22] = biological target: IgG binding protein (Protein A homolog SpsQ/SpsP) on S. intermedius 27369 (Staphylococcus intermedius); test: ELISA, coated S. intermedius 27369, antibody 7.54E-11 M
[23] = biological target: IgG binding protein (Protein A homolog SpsQ/SpsP) on S. pseudintermedius AHDRCC 98200 (Staphylococcus pseudintermedius); test: ELISA, coated S. pseudintermedius 98200, antibody 4.82E-09 M
[24] = biological target: IgG binding protein (Protein A homolog SpsQ/SpsP) on S. pseudintermedius AHDRCC 98200 (Staphylococcus pseudintermedius); test: ELISA, coated S. pseudintermedius 98200, antibody 9.42E-12 M
[25] = biological target: IgG binding protein (Protein A homolog SpsQ/SpsP) on MRSP S. pseudintermedius 88493 (Staphylococcus pseudintermedius); test: ELISA, coated S. pseudintermedius 88493, antibody 1.47E-13 M
[26] = biological target: Protein A on the surface of S. aureus Newman wild-type (Staphylococcus aureus (strain Newman)) (UniProt P38507); test: ELISA, coated S. aureus Newman, antibody 6.03E-10 M
[27] = biological target: IgG binding protein (Protein A homolog SpsQ/SpsP) on MRSP S. pseudintermedius 88493 (Staphylococcus pseudintermedius); test: ELISA, coated S. pseudintermedius 88493, antibody 1.18E-12 M
[28] = biological target: IgG binding protein (Protein A homolog SpsQ/SpsP) on S. intermedius 27369 (Staphylococcus intermedius); test: ELISA, coated S. intermedius 27369, antibody 1.18E-12 M
[29] = biological target: IgG binding protein (Protein A homolog SpsQ/SpsP) on MRSP S. pseudintermedius 88493 (Staphylococcus pseudintermedius); test: ELISA, coated S. pseudintermedius 88493, antibody 3.86E-08 M
[30] = biological target: Protein A on the surface of S. aureus Newman wild-type (Staphylococcus aureus (strain Newman)) (UniProt P38507); test: ELISA, coated S. aureus Newman, antibody 3.86E-08 M
[31] = biological target: IgG binding protein (Protein A homolog SpsQ/SpsP) on MRSP S. pseudintermedius 88493 (Staphylococcus pseudintermedius); test: ELISA, coated S. pseudintermedius 88493, antibody 6.03E-10 M
[32] = biological target: Protein A on the surface of S. aureus Newman wild-type (Staphylococcus aureus (strain Newman)) (UniProt P38507); test: ELISA, coated S. aureus Newman, antibody 9.42E-12 M
[33] = biological target: Protein A on the surface of S. aureus Newman wild-type (Staphylococcus aureus (strain Newman)) (UniProt P38507); test: cell-based or functional assay
[34] = biological target: IgG binding protein (Protein A homolog SpsQ/SpsP) on S. pseudintermedius AHDRCC 98200 (Staphylococcus pseudintermedius); test: cell-based or functional assay
[35] = biological target: IgG binding protein (Protein A homolog SpsQ/SpsP) on S. intermedius 27369 (Staphylococcus intermedius); test: cell-based or functional assay

hIgG1 control (REGN1932) (antibody)
ELISA luminescent signal [1]: 1480 | ELISA luminescent signal [2]: 506000 | ELISA luminescent signal [3]: 8950 | ELISA luminescent signal [4]: 25300 | ELISA luminescent signal [5]: 7980 | ELISA luminescent signal [6]: 36400 | ELISA luminescent signal [7]: 132000 | ELISA luminescent signal [8]: 652000 | ELISA luminescent signal [9]: 42100 | ELISA luminescent signal [10]: 34800 | ELISA luminescent signal [11]: 7560 | ELISA luminescent signal [12]: 253000 | ELISA luminescent signal [13]: 5300 | ELISA luminescent signal [14]: 1610 | ELISA luminescent signal [15]: 2830 | ELISA luminescent signal [16]: 4770 | ELISA luminescent signal [17]: 43900 | ELISA luminescent signal [18]: 30200 | ELISA luminescent signal [19]: 18600 | ELISA luminescent signal [20]: 123000 | ELISA luminescent signal [21]: 2590 | ELISA luminescent signal [22]: 2680 | ELISA luminescent signal [23]: 8040 | ELISA luminescent signal [24]: 1460 | ELISA luminescent signal [25]: 8190 | ELISA luminescent signal [26]: 509000 | ELISA luminescent signal [27]: 8920 | ELISA luminescent signal [28]: 9740 | ELISA luminescent signal [29]: 14500 | ELISA luminescent signal [30]: 434000 | ELISA luminescent signal [31]: 11000 | ELISA luminescent signal [32]: 72500

hIgG1*/* control (REGN4440) (antibody)
ELISA luminescent signal [1]: 1120 | ELISA luminescent signal [2]: 38800 | ELISA luminescent signal [3]: 7360 | ELISA luminescent signal [4]: 896 | ELISA luminescent signal [5]: 6150 | ELISA luminescent signal [6]: 5100 | ELISA luminescent signal [7]: 15200 | ELISA luminescent signal [8]: 19400 | ELISA luminescent signal [9]: 2490 | ELISA luminescent signal [10]: 3850 | ELISA luminescent signal [11]: 6370 | ELISA luminescent signal [12]: 24400 | ELISA luminescent signal [13]: 3010 | ELISA luminescent signal [14]: 775 | ELISA luminescent signal [15]: 2170 | ELISA luminescent signal [16]: 2760 | ELISA luminescent signal [17]: 14700 | ELISA luminescent signal [18]: 17100 | ELISA luminescent signal [19]: 15500 | ELISA luminescent signal [20]: 11100 | ELISA luminescent signal [21]: 2240 | ELISA luminescent signal [22]: 2510 | ELISA luminescent signal [23]: 2410 | ELISA luminescent signal [24]: 1170 | ELISA luminescent signal [25]: 12300 | median cfu/mL after 16 h in 50% normal human serum, mAb 270 ug/mL [33]: 7e+06 cfu/mL | median cfu/mL after 16 h in 50% normal human serum, mAb 270 ug/mL [34]: 7.5e+06 cfu/mL | median cfu/mL after 16 h in 50% normal human serum, mAb 270 ug/mL [35]: 8e+06 cfu/mL | ELISA luminescent signal [26]: 27500 | ELISA luminescent signal [27]: 6710 | ELISA luminescent signal [28]: 2210 | ELISA luminescent signal [29]: 6470 | ELISA luminescent signal [30]: 27600 | ELISA luminescent signal [31]: 7080 | ELISA luminescent signal [32]: 16700
